Measurements from patent US20190134169A1.

Biological target: mouse Notch1 on CD4+ T cells (mouse) (UniProt Q01705)
Assay: cell-based or functional assay

Sequence of UniProt Q01705 (Q01705 19-2531): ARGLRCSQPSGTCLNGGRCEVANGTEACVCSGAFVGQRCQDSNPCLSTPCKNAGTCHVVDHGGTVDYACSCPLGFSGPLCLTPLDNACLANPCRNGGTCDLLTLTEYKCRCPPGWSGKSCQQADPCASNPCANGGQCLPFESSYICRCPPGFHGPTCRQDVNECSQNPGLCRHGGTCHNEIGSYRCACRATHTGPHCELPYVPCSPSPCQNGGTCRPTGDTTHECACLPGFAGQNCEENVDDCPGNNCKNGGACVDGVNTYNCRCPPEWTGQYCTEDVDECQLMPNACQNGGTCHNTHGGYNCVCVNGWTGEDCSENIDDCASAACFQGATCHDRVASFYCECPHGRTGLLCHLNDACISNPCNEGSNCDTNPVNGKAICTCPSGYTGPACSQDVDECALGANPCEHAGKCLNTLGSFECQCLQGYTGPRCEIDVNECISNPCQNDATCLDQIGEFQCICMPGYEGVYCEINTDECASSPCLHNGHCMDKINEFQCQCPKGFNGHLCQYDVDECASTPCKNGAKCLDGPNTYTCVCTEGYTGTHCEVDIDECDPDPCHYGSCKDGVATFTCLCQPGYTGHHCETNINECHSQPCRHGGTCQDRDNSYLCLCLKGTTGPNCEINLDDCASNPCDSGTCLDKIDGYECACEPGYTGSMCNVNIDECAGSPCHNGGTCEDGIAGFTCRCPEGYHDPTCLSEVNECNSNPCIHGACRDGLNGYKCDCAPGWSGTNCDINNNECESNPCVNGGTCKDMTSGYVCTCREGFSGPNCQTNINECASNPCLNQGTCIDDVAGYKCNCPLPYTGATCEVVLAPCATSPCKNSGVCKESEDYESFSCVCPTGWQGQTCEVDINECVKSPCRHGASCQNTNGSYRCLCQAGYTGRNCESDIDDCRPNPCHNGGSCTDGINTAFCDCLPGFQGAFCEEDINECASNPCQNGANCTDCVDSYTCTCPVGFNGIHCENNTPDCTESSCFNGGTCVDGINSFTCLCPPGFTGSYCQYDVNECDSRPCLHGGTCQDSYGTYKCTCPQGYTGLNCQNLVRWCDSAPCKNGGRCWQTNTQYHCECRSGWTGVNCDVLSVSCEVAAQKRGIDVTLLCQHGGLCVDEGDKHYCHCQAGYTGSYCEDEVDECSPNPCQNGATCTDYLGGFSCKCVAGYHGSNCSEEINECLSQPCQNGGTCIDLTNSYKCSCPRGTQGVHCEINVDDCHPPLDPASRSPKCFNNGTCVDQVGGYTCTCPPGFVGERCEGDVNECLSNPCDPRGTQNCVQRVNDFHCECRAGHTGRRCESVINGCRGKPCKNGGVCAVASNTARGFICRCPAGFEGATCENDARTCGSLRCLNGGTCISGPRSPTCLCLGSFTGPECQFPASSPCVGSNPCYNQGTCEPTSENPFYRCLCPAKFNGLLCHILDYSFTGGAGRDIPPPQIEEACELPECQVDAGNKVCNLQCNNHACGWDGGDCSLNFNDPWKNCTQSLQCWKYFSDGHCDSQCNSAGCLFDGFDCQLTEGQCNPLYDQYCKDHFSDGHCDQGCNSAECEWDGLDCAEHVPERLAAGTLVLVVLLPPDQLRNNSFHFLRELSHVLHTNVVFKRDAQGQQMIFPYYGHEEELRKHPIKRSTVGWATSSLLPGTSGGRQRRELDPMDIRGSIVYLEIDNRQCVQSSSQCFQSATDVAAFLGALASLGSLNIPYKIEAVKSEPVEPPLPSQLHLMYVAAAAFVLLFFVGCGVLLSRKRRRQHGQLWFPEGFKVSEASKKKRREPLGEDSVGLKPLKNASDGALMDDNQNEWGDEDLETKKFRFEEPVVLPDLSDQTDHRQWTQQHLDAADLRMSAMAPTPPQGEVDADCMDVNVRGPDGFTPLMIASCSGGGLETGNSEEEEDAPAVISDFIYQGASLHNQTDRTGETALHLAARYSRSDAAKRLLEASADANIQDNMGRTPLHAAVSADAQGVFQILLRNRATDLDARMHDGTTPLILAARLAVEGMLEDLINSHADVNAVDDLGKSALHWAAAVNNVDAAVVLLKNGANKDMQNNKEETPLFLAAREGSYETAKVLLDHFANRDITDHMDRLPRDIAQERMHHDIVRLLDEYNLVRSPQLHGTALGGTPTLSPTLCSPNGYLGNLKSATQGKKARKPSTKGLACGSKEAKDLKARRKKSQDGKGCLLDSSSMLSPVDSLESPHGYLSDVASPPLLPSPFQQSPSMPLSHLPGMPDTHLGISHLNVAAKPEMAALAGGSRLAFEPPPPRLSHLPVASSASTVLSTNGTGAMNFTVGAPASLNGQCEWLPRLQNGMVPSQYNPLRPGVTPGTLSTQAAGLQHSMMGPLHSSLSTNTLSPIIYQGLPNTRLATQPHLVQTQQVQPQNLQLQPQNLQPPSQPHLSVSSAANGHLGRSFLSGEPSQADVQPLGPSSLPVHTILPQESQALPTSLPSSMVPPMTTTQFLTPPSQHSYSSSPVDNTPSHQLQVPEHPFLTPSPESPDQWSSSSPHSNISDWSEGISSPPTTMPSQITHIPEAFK

percentage of DLL4hiDC-activated CD4+ T cells with high cleaved intracellular Notch (ICN): 61%
Substance: mouse delta-like ligand 4 (DLL4) on the surface of DLL4hiDCs (from UniProt Q9JI71 27-686)
